Here are results for two molecules from article PMC9663308 (2022).

Ends that are not written are not given here.

Assay [1] addresses T1, ClpS adaptor (E. coli, UniProt P0A8Q6 1-106).
T1 chain: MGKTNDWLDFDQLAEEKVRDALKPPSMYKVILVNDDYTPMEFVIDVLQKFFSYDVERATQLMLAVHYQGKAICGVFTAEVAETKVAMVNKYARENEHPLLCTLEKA
The assay is described as follows: FP.

Assay [2] deals with T2, ClpA (laboratory 'wild-type' ClpA carrying M169T), hexamer (E. coli, UniProt P0ABH9 1-758, M169T). In words: FP.
The target of assay [3] is T3, ClpA D1 pore-2 loop variant KYR (AAS 295–297 to KYR), hexamer (E. coli, UniProt P0ABH9 1-758, M169T | 295–297 AAS to KYR).
T3 sequence: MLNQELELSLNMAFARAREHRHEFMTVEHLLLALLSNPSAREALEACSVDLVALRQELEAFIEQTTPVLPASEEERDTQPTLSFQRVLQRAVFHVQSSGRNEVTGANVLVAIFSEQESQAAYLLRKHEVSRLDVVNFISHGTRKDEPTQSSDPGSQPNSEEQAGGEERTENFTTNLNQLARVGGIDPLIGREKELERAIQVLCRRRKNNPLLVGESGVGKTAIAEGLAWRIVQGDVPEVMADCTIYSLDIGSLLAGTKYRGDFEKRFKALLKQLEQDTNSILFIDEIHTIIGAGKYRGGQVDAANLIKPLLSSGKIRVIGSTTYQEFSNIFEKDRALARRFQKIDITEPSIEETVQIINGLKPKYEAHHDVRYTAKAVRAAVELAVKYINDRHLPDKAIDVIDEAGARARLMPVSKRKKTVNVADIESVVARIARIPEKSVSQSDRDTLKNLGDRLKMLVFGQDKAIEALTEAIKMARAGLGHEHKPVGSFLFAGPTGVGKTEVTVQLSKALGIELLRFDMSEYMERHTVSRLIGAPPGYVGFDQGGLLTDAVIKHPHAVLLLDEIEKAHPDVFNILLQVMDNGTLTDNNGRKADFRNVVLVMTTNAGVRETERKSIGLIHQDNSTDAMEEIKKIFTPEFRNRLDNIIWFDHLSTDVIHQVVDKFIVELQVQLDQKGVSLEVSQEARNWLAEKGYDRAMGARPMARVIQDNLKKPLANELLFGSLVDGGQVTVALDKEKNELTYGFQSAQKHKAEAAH
In words: FP.

Assay [4] deals with T4, ClpA D1 pore-2 loop variant Δ295–297, hexamer (E. coli, UniProt P0ABH9 1-758, M169T | Δ295–297).
T4 sequence: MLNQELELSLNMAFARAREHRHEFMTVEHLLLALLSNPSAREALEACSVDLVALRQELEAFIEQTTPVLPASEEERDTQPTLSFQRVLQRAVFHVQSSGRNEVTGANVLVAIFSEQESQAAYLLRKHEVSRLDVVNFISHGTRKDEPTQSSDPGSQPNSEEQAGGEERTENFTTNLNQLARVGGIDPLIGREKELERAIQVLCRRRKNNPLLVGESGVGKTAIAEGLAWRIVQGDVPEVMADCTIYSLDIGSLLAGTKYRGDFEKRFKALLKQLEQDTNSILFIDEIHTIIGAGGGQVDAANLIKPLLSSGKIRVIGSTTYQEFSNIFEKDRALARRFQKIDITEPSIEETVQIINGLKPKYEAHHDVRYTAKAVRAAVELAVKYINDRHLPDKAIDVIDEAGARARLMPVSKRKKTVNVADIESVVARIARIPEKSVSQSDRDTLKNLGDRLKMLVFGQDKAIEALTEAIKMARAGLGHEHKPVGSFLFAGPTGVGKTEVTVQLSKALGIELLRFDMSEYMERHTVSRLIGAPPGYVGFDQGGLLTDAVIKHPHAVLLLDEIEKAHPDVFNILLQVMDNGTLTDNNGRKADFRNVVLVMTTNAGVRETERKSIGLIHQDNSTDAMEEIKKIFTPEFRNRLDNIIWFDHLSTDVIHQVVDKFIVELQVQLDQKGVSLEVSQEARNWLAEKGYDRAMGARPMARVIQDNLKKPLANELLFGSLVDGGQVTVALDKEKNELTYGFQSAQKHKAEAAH
The assay is described as follows: FP.

The target of assay [5] is T5, ClpA D1 pore-2 loop variant QTQ (AAS 295–297 to QTQ), hexamer (E. coli, UniProt P0ABH9 1-758, M169T | 295–297 AAS to QTQ).
T5 sequence: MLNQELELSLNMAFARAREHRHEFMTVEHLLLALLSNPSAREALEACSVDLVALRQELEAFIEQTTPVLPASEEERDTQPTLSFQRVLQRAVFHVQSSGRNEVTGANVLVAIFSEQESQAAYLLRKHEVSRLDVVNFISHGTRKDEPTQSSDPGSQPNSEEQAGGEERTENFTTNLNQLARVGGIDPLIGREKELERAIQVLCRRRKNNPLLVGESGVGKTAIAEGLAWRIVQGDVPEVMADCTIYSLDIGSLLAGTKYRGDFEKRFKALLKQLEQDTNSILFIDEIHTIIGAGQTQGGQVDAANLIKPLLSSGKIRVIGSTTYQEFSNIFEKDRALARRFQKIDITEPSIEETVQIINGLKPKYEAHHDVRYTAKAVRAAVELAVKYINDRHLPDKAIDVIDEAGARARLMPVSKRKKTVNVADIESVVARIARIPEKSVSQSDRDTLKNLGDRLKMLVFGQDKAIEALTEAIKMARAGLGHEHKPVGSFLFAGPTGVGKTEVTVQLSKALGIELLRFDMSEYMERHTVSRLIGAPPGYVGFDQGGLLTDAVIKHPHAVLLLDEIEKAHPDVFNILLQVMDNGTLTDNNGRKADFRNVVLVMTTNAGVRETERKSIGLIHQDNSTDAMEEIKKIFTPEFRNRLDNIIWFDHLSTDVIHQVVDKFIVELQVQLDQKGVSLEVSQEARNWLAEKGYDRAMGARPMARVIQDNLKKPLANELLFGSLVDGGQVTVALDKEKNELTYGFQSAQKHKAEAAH
The assay is described as follows: FP.

The target in assay [6] is T6, ClpA D1 pore-2 loop variant GGG (AAS 295–297 to GGG), hexamer (E. coli, UniProt P0ABH9 1-758, M169T | 295–297 AAS to GGG).
T6 sequence: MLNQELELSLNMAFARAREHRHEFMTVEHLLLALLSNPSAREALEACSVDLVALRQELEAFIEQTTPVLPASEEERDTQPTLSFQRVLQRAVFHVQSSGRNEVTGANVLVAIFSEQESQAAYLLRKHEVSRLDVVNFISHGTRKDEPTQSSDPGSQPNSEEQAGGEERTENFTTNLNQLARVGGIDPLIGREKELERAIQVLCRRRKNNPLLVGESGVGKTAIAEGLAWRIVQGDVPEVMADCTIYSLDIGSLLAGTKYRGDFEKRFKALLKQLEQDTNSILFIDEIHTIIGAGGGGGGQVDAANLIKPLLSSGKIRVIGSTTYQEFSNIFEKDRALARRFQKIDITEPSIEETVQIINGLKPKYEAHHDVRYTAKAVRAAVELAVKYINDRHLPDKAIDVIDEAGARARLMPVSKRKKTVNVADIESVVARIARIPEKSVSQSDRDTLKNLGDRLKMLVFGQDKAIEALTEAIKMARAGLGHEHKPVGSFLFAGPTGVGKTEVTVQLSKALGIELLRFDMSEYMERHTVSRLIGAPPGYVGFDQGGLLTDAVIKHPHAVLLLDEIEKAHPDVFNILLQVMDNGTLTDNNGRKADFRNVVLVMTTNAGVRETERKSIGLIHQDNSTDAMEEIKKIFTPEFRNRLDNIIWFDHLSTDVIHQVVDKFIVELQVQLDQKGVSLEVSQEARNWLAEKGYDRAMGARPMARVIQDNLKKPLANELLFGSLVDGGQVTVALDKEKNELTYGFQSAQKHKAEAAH
The assay is described as follows: FP.

Assay [7] deals with T2, ClpA (laboratory 'wild-type' ClpA …). In words: FP; equimolar ClpA6 + ClpS titrated against N-degron peptide.
The target in assay [8] is T3, ClpA D1 pore-2 loop variant KYR (AAS …). The assay is described as above.
Assay [9] addresses T4, ClpA D1 pore-2 loop variant Δ295–297, …. The description is as above.
Assay [10] has as its target T5, ClpA D1 pore-2 loop variant QTQ (AAS …). The description is as above.
The target of assay [11] is T6, ClpA D1 pore-2 loop variant GGG (AAS …). The assay is described as above.

Usually Kd stands for the free concentration of one partner at which half of the binding sites on the other are occupied at equilibrium, for simple one-to-one binding.

B1: LLYVQRDSKEC-fluorescein N-degron synthetic peptide (peptide)
peptide: LLYVQRDSKEC-fluorescein
modifications: not fully specified (residue 11); printed as LLYVQRDSKEC-fluorescein
For the molecule B1, the Kd in assay [1] turned out to be 2600 nM; in assay [2] it was 1200 nM; in [3], 550 nM; in assay [4], 1200 nM; in assay [5] it was 900 nM; in [6] it was 670 nM.

B2: ClpS•N-degron peptide complex (ClpS with LLYVQRDSKEC-fluorescein) (complex)
chain 1: MGKTNDWLDFDQLAEEKVRDALKPPSMYKVILVNDDYTPMEFVIDVLQKFFSYDVERATQLMLAVHYQGKAICGVFTAEVAETKVAMVNKYARENEHPLLCTLEKA
chain 2: LLYVQRDSKEC
modifications: fluorescein (printed as LLYVQRDSKEC-fluorescein)
With B2, the Kd in assay [7] was 56 nM; in assay [8], 73 nM; in assay [9], 44 nM; in [10] it was 65 nM; in assay [11], 41 nM.
